Assay results: patent publication US20250297032A1 (CONCEPT TO MEDICINE BIOTECH, published 2025)
Residue numbers refer to the chain shown, from its start.

T1: human FAPα on CHO-K1-hFAPα cells (human, UniProt Q12884 1-760)
T1 construct: whole, on cells; also called cell-surface FAPα
T1 sequence (looked up): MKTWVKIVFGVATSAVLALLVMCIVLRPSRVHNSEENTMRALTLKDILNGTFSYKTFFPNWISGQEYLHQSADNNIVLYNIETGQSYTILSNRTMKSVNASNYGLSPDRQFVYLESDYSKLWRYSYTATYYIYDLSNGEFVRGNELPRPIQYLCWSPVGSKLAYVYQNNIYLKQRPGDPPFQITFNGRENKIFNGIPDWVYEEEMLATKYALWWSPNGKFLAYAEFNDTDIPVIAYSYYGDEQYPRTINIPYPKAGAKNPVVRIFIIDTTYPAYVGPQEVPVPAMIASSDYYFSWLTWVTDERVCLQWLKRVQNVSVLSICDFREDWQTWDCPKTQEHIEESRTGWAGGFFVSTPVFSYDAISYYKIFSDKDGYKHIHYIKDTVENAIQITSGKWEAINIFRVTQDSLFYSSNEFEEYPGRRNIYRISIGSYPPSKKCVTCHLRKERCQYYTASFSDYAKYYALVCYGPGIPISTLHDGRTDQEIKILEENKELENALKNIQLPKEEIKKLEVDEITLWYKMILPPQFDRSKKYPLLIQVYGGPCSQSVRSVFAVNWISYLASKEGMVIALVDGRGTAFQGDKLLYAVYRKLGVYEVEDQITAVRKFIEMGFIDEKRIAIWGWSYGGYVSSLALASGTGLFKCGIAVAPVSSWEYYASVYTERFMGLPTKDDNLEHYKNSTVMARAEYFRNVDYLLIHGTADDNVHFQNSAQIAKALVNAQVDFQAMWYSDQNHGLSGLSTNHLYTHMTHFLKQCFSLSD

T2: human FAPα-His tag (Sino biological) (human, UniProt Q12884 26-760)
T2 construct: Bought protein; also called human FAPα-His protein; not shown: His tag
T2 sequence (looked up): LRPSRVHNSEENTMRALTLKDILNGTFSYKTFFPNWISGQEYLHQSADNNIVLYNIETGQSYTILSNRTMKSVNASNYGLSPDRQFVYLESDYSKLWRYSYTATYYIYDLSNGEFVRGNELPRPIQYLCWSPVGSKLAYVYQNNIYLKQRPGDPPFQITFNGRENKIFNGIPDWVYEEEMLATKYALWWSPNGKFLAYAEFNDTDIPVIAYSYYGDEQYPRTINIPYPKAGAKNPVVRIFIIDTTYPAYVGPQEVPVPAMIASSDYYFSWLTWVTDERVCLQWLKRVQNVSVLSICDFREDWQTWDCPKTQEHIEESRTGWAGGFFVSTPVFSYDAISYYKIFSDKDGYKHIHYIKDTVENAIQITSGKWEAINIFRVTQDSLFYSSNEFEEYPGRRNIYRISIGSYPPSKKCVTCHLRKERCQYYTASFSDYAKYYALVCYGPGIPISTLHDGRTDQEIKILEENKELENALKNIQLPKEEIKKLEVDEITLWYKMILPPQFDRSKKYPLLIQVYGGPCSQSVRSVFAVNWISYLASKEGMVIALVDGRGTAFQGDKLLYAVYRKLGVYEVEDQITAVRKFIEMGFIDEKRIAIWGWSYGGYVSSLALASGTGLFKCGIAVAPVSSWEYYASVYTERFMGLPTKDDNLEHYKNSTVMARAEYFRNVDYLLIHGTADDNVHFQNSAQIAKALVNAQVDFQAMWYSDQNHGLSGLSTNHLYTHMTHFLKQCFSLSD

B1: G14 (antibody, V domains shown)
VH: QVQLLESGGGVVQPGRSLRLSCAASGFTFSSYAMHWVRQAPGKGLEWVAFISHDGNRNSYADSVRGRFTISRDNSKNTLYLQMNSLRAEDTAVYYCARDLGYYNGFSYWGQGTLVTVSA
VL: DIVMTQSPSSVSASVGDRVTITCRASQGISSWLAWYQQKPGKAPKLLIYAASSLQSGVPSRFSGSGSGTDFTLTISSLQPEDFATYYCQQANSFPPTFGPGTKVDIK
notes: Full human antibody from a Fab phage library; Tested as a mAb (detected with anti-human IgG, captured on Protein A); also called FAP-G14; FAP-G14-Bio (biotin-conjugated form)
B2: J40 (antibody, V domains shown)
VH: EVQLLESGGGLVQPGGSLRLSCAASGFTFSSYAMSWVRQAPGKGLEWVSAISGSGGSTYYADSVKGRFTISRDNSKNTLYLQMNSLRTDDTAVYYCARDLTTSTGWESWGQGTLVTVSA
VL: B1 VL with D1N, V3Q, P100Q, V104L, D105E
notes: Tested as a mAb; also called FAP-J40; FAP-J40-Bio (biotin-conjugated form)
B3: I30 (antibody, V domains shown)
VH: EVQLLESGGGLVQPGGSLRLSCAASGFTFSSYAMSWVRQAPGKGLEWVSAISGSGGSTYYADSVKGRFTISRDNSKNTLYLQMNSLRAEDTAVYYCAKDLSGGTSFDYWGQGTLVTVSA
VL: B1 VL with D1A, V3R, M4L, P100G, D105E
notes: Tested as a mAb; also called 130; FAP-I30
B4: I37 (antibody, V domains shown)
VH: QLQLVESGGGLVQPGGSLRLSCAASGFTFSSYAMSWVRQAPGKGLEWVSAISGSGGSTYYADSVKGRFTISRDNSKNTLYLQMNSLRAEDTAVYYCARDKPWGGSFDYWGQGTLVTVSA
VL: B1 VL with V3Q, M4L, V11L, P96V
notes: Tested as a mAb; also called FAP-I37

Each binder was assayed against T1, human FAPα on CHO-K1-hFAPα cells (assay: flow cytometry on CHO-K1-hFAPα cells (MFI of PE)).
Parameters: unit not given beside the values
Procedure: (§1) To evaluate the cell-based binding property to human FAPα, the tested antibodies were analyzed for their binding to CHO-K1-hFAPα by FACS. A total number of 1×10⁵ CHO-K1-hFAPα cells in each well were incubated with 4-fold serial diluted antibodies starting from 3 μg/ml for 30 minutes at 4° C. in FACS buffer. After wash by FACS buffer, PE conjugated-anti-human IgG antibody was added to each well and incubated at 4° C. for 30 minutes. After wash, MFI of PE was evaluated by MACSQuant Analyzer 16.
B1 showed a Cmax of 515. In the case of B2, the Cmax is reported as 381. B3 showed a Cmax of 455. In the case of B4, the Cmax is reported as 465.

These binders were tested against T2, human FAPα-His tag (Sino biological) (assay: competitive ELISA on coated human FAPα; competitor (detected): FAP-I38-Bio).
Procedure: (§2) Briefly, microtiter plates were coated with human FAPα proteins at 0.5 μg/ml in PBS, 100 μl/well at 4° C. overnight, then blocked with 150 μl/well of 1% BSA. Serial dilutions of chimeric antibodies as well as biotin-conjugated reference mAb were added to each well and incubated for 1 hour at RT. The plates were washed with PBS/Tween and then incubate with streptavidin-HRP for 15 mins at RT. After washing, the plates were developed with TMB substrate and analyzed by spectrophotometer at OD 450 nm. According to the competition ability to reference mAbs (Benchmark, or “BMK”), all tested FAPα mAbs binds to the similar epitope as shown in Table 5.
With B1 the “OD 450 nm” value was 0.658 OD 450 nm. With B2 the “OD 450 nm” value was 0.527 OD 450 nm. With B3 the “OD 450 nm” value was 0.324 OD 450 nm. For B4, the “OD 450 nm” value was 0.703 OD 450 nm.

These binders were tested against T1, human FAPα on CHO-K1-hFAPα cells (assay: flow cytometry on CHO-K1-hFAPα cells).
Procedure: as §1
B1 was tested, and the EC50 was 0.073 ng/mL. Work on B2 yielded an EC50 of 0.025 ng/mL. In the case of B3, the EC50 is reported as 0.08 ng/mL. B4 showed an EC50 of 0.057 ng/mL.

What follows are binders tested against T2, human FAPα-His tag (Sino biological) (assay: ELISA, coated human FAPα-His).
Procedure: Briefly, microtiter plates were coated with human FAPα-His protein at 0.5 ug/ml in PBS, 100 μl/well at 4° C. overnight, then blocked with 150 μl/well of 1% BSA. Three-fold dilutions of tested antibodies starting from 1 μg/ml were added to each well and incubated for 1 hour at 37° C. The plates were washed with PBS/Tween and then incubated with Anti-Human IgG (H&L) (GOAT) Antibody Peroxidase Conjugated for 30 mins at 37° C. After washing, the plates were developed with TMB substrate and analyzed by spectrophotometer at OD 450 nm. […] FAP-4B9 clone from Roche was served as positive control which labeled as FAPα-BMK.
Binder B1 has an EC50 of 4.64 ng/mL. B2 was tested, and the EC50 was 3.87 ng/mL. B3 gave an EC50 of 3.42 ng/mL. In the case of B4, the EC50 is reported as 5.4 ng/mL.

Each binder was assayed against T2, human FAPα-His tag (Sino biological) (assay: SPR (Biacore T200), mAb captured on Protein A chip, human FAPα-His as analyte).
Procedure: The binding of the tested antibodies to recombinant FAPα protein (human FAPα-his tag) was tested with Biacore using a capture method. The mAbs were captured using Protein A chip. A serial dilution of human FAPα-his tag protein was injected over captured antibody for 3 mins at a flow rate of 30 μl/min. The antigen was allowed to dissociate for 800s. All the experiments were carried out on a Biacore T200. Data analysis was carried out using the Biacore T200 evaluation software.
For B1, the Kd was 0.522 nM, the koff was 6.24e-05 s⁻¹ and the kon was 120000 M⁻¹ s⁻¹. With B2 the Kd was 1.01 nM, the koff was 7.31e-05 s⁻¹ and the kon was 72200 M⁻¹ s⁻¹. For B3, the Kd was 0.454 nM, the koff was 6.2e-05 s⁻¹ and the kon was 137000 M⁻¹ s⁻¹. For B4, the Kd was 0.855 nM, the koff was 0.000154 s⁻¹ and the kon was 180000 M⁻¹ s⁻¹.

The binders below were run against T2, human FAPα-His tag (Sino biological) (assay: competitive ELISA on coated human FAPα; competitor (detected): FAP-G14-Bio).
Procedure: Competitive ELISA was carried out to classify the FAPα mAbs based on the binding epitope to human FAPα.
as §2
In the case of B1, the “OD 450 nm” value is reported as 0.209 OD 450 nm. For B2, the “OD 450 nm” value was 0.167 OD 450 nm. With B3 the “OD 450 nm” value was 0.129 OD 450 nm. For B4, the “OD 450 nm” value was 0.224 OD 450 nm.
